Source: paper PMC4334984, “In Vitro Selection of a Single-Stranded DNA Molecular Recognition Element against Clostridium difficile Toxin B and Sensitive Detection in Human Fecal Matter”

Molecular target: Toxin B (Clostridium difficile, UniProt P18177 1-2366)
Test: SPR (single cycle kinetics, 1:1 model); […] (pH not stated); […]; SPR temperature not stated
Conditions: protein: commercial

Toxin B, sequence (P18177 whole entry): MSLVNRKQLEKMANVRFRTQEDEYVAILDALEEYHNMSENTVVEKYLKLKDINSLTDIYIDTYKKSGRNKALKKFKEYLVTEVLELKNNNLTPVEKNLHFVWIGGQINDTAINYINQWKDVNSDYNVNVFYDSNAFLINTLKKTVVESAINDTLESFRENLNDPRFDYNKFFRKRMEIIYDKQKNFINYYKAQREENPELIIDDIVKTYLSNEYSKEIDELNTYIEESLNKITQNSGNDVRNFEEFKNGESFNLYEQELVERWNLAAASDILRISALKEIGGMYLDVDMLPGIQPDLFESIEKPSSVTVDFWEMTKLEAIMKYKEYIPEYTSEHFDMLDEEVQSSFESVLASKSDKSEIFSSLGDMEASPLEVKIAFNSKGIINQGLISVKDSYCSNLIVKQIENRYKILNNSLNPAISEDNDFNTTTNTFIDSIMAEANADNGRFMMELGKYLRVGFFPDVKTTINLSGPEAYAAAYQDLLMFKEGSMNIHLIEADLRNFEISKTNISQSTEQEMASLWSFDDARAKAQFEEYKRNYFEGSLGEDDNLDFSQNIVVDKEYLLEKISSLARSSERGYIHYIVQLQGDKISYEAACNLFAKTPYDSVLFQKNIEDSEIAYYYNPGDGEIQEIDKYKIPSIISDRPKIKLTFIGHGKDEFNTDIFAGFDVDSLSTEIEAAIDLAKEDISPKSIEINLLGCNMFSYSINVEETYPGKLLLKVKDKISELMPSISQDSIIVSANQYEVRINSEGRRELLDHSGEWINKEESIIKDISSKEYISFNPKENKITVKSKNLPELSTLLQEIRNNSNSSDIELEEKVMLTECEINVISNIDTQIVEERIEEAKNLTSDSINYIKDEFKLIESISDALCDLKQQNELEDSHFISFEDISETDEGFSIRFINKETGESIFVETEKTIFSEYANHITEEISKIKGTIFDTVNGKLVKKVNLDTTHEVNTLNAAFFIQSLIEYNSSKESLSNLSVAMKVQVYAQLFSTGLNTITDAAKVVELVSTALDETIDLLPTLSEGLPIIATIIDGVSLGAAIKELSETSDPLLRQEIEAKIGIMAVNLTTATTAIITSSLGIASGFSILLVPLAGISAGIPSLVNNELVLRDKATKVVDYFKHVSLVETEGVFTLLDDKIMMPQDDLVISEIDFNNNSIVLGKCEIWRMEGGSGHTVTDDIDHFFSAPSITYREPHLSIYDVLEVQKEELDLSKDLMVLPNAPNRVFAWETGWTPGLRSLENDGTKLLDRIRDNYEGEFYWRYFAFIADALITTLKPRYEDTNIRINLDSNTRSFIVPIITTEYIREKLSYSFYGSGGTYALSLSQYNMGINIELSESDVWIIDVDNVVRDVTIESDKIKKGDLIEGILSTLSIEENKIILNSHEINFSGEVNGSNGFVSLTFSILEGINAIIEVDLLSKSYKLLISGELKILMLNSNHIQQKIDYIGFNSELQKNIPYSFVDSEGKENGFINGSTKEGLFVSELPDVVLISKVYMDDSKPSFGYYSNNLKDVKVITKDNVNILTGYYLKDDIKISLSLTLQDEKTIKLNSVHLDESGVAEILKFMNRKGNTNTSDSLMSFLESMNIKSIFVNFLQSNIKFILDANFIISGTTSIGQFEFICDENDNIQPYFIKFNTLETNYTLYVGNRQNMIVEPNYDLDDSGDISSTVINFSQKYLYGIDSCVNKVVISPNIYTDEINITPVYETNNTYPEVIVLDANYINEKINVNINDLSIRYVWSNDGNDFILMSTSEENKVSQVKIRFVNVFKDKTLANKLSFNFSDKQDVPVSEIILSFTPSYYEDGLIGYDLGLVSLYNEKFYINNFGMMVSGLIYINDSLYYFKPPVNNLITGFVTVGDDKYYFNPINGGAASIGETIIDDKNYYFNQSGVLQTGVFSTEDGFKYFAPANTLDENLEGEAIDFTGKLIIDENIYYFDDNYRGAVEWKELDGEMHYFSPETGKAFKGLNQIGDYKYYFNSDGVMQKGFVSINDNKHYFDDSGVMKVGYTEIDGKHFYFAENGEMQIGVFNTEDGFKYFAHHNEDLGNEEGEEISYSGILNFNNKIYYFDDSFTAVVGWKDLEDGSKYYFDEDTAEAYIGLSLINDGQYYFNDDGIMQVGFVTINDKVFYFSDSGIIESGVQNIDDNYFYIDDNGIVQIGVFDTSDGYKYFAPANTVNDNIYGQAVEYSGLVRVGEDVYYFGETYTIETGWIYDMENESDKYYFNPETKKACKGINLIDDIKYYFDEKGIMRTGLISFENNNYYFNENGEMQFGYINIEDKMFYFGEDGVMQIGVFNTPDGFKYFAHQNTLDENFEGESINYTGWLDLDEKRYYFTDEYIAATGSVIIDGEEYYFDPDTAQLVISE

B1: R12.69 (SPR) (ssDNA)
DNA: TGTACCGTCTGAGCGATTCGTACCCTCGCTAATGCTGCTTGATGTGTGGCCTCGAATAGCCAGTCAGTGTTAAGGAGTGC
modifications: 5'-amino-C6
Kd: 47.3 ± 13.7 nM
